Reference: patent publication US20230331827A1, “POTASSIUM CHANNEL INHIBITORS” (priority 2017, published 2023)
Read-outs that look alike come from different tables or passages of the source.

Tests used:
Type in all cases: cell-based
huKv1.3 = target: T1, huKv1.3 (Homo sapiens, UniProt P22001); experiment: QPatch automated whole-cell patch-clamp, CHO cells stably expressing huKv1.3 (Example 8); conditions: Kv1.3 channels, IgG KnotBody, Table 11A
T1 construct: host or cells: CHO
Procedure: Knottin Kv 1.3 and ASIC1a blockers expressed in the KnotBody format (see examples 6 and 7) were tested for their ability to inhibit the function of the ion channel targets. The effect of these KnotBodies on cells expressing the human Kv 1.3 (huKv1.3) or human ASIC1a channels was assessed using QPatch automated whole-cell patch-clamp electrophysiology (Sophion).
For the testing of Kv1.3, CHO cells stably expressing huKv1.3 (Charles River Lab) were analysed using the QPatch electrophysiology assay in the presence or absence of the KnotBody fusions or the antibody isotypes (negative) controls. Internal and external physiological solutions were freshly prepared prior to the assay. The extracellular solution contained 145 mM NaCl, 4 mM KCl, 2 mM CaCl2, 1 mM MgCl2, 10 mM HEPES and 10 mM glucose; the pH was adjusted to 7.4 with NaOH; the osmolarity was ~ 305 mOsm/L. The intracellular solution contained: KF (120 mM), KCl (20 mM), HEPES (10 mM) and EGTA (10 mM); the pH was adjusted to 7.2 with KOH; osmolarity was ~ 320 mOsm/L.
A series of depolarising voltage (channel activating) pulses were used to monitor the channel currents upon adding control (extracellular solution) to define a control baseline of current activity. To these measured control currents ascending concentrations of KnotBodies or parental antibody isotypes (control molecules) were applied to the external bathing solution (2.2 µM - 0.5 nM, diluted in the extracellular solution). KnotBodies KB_A12 and KB_A07 (EETI-II fusions) were used as isotype controls for the testing. From a holding voltage of -80 mV a depolarising, activating voltage pulses of +30 or +80 mV were applied for 300 ms, every 5 or 10 seconds. The elicited, maximum outward current values measured during the activating step for each solution exchange period were averaged (n = 3 - 8 for each concentration applied) and plotted as concentration-response curves. KB_A07_ShK, KB_A12_ShK and KB_A07_Kaliotoxin (KTX) fusion proteins all inhibited the huKv1.3 currents in a concentration dependent manner with IC50S of approximately 20 nM, 40 nM and 900 nM respectively.

human Kv1.3 (huKv1.3) = target: T2, human Kv1.3 (huKv1.3) (Homo sapiens, UniProt P22001); experiment: QPatch automated patch-clamp, CHO cells stably expressing human Kv1.3 (Examples 19-21)
T2 construct: host or cells: CHO
T2 sequence (P22001 whole entry): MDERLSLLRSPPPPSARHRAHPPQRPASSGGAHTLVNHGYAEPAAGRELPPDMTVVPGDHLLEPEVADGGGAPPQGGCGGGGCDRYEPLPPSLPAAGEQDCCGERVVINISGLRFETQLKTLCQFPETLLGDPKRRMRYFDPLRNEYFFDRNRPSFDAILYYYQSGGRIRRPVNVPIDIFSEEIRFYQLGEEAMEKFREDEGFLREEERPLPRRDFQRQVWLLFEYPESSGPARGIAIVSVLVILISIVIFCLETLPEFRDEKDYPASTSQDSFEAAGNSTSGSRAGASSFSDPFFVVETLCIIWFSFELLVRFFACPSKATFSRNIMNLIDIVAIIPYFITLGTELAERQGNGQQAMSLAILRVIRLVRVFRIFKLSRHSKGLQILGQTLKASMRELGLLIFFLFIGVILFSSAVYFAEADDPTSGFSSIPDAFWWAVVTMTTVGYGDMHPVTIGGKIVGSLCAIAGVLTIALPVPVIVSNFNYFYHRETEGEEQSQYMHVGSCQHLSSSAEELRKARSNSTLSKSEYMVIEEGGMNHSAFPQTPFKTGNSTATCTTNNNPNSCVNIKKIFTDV
Procedure: The effect of these KnotBodies on cells expressing human Kv1.3 (huKv1.3) channel was assessed using the QPatch automated patch-clamp platform (Sophion, Ballerup, Denmark). For the testing of Kv1.3 ion channel currents, CHO cells stably expressing human Kv1.3 (GenBank accession number NM_002232.2; cell line catalogue number CT6133, Charles River Discovery, Cleveland, USA) were subjected to a QPatch electrophysiology assay in the presence or absence of the KnotBody fusions or the antibody isotypes (negative controls). Internal and external physiological solutions were freshly prepared prior to the assay. The extracellular solution contained 145 mM NaCl, 4 mM KC1, 2 mM CaC12, 1 mM MgC12, 10 mM HEPES and 10 mM glucose; the pH was adjusted to 7.4 with NaOH; the osmolarity was ~ 305 mOsm/L. The intracellular solution contained: KF (120 mM), KC1 (20 mM), HEPES (10 mM) EGTA (10 mM); the pH was adjusted to 7.2 with KOH; osmolarity was ~ 300 mOsm/L.
(§1) A series of depolarising voltage (channel activating) pulses were used to monitor the channel currents upon adding control (extracellular solution) to define a control baseline of current activity. To these measured control currents four, ascending concentrations of KnotBodies (including KB_A12_ShK and KB_A12_KTX as previously described in Example 8) or parental antibody isotypes (control molecules) were applied to the external bathing solution. KnotBodies KB_A12 and KB_A07 (EETI-II fusions) were used as isotype controls for the testing. From a holding voltage of -80 mV a depolarising, activating voltage pulses of +30 mV were applied for 300 ms, every 10 seconds. The elicited, maximum outward current values measured during the activating step for each solution exchange period, averaged (n = 3 - 6 for each concentration applied) and plotted as concentration-response curves (see FIG. 32). From these concentration-response curves IC50 values were calculated.
(§2) For the testing of Kv1.1 and Kv1.3, CHO-S expressing huKv1.1 (described above) or CHO cells stably expressing huKv1.3 (Charles River Lab) were analysed using the QPatch electrophysiology assay in the presence or absence of the KnotBody fusions. Internal and external physiological solutions were freshly prepared prior to the assay. The extracellular solution contained 145 mM NaCl, 4 mM KC1, 2 mM CaC12, 1 mM MgC12, 10 mM HEPES and 10 mM glucose; the pH was adjusted to 7.4 with NaOH; the osmolarity was ~ 305 mOsm/L. The intracellular solution contained: KF (120 mM), KC1 (20 mM), HEPES (10 mM) EGTA (10 mM); the pH was adjusted to 7.2 with KOH; osmolarity was ~ 300 mOsm/L.
as §1, with “(including previously described” for “(including”, “KB_A12_KTX” for “KB_A12_KTX as previously”, “[…]” for “+30 mV”, “33).” for “32).”, “calculated (see Table E20).” for “calculated.”
(§3) For the testing of Kv1.1 and Kv1.3, CHO-S expressing huKv1.1 (see Example 20 and below) or CHO cells stably expressing huKv1.3 (Charles River Lab) were analysed using the QPatch electrophysiology assay in the presence or absence of the KnotBody fusions - see details in Examples 19 and 20.

human Kv1.1 (huKv1.1) = target: T3, human Kv1.1 (huKv1.1) (Homo sapiens, UniProt Q09470); experiment: QPatch automated patch-clamp, CHO-S cells expressing huKv1.1 (Examples 20-21); conditions: four-point curves of FIG. 33, Table E20
T3 construct: expressed in transfected cells; host or cells: Freestyle CHO-S
T3 sequence (Q09470 whole entry): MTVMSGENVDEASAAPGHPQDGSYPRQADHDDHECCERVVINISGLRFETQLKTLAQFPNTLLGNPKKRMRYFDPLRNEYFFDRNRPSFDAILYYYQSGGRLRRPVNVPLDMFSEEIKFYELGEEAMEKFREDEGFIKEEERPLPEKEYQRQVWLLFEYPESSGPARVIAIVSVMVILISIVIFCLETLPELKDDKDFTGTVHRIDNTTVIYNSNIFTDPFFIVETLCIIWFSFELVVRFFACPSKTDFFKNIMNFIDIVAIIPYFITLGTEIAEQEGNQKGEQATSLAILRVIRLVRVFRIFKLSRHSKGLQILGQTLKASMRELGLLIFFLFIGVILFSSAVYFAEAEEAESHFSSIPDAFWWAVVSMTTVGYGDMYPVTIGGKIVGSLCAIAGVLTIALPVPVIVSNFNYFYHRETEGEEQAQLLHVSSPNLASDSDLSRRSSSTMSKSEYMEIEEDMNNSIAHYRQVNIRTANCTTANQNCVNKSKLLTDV
Procedure: 1. The effect of these KnotBodies on cells expressing human Kv1.1 (huKv1.1) and Kv1.3 (huKv1.3) channels was assessed using QPatch automated patch-clamp platform (Sophion).
To generate huKv1.1 expressing cells, Freestyle CHO-S cells (Cat. no. R80007, Life Technologies, California, USA) were transfected with pINT50-Tr plasmid encoding huKv1.1 gene using the MaxCyte STX (MaxCyte) transfection system. In pINT50-Tr plasmid, huKv1.1 gene is under the control of a CMV promoter. 64 µg of the plasmid DNA were added to 400 µl of Freestyle CHO-S cells (at a density of 1 × 10^8 cells/ml) in Electroporation Buffer (GE Healthcare Life Sciences, Cat. no. EPB1) in an OC-400 processing assembly (MaxCyte). Following electroporation, the cells were transferred to a well of a 24-well plate containing 200 U/ml DNAse I (Sigma, D4263) and incubated for 20 minutes at 37° C. and 5% CO2. The cells were then transferred into a 100 ml shaker flask containing 20 ml of CD Opticho Media (Thermo Fisher Scientific, Cat.No 12681-011,) supplemented with 8 mM L-Glut (Thermo Fisher Scientific, cat. no. 25030-024). The cells were incubated for 24 hours at 37° C. and 5% CO2 (and 75% humidity and shaking at 800 rpm) prior to testing using automated patch clamp electrophysiology.
as §2
as §1, with “(including previously described” for “(including”, “KB_A12_KTX” for “KB_A12_KTX as previously”, “[…]” for “+30 mV”, “33).” for “32).”, “calculated (see Table E20).” for “calculated.”
as §3
In addition to the CHO-S transiently expressing huKv1.1 (described in Example 20), CHO-S cells with poly-clonal stable expression of huKv1.1 cells were also made and used in the QPatch electrophysiology assay. To generate the polyclonal stable huKv1.1 cells from the transiently expressing cells described in Example 20, after a 24 hour incubation period the selection antibiotic Puromycin (catalogue no. A1 1138-03, Life Technologies, California, USA) was added to culture media. Then, for the first 14 days puromycin was at 10 µg ml-1 media; at days 15-28 puromycin was at 20 µg ml-1 media. Cell cultures were seeded at 2.5 x 10^5 cells ml^-1 into fresh culture media and puromycin twice per week through this selection growth period. […]

T1 sequence (P22001 whole entry): as the sequence (P22001 whole entry) above

B1: KB_A12_KTX: kaliotoxin in VL CDR2 of KB_A12, IgG1 (antibody)
VH: EVQLVESGGGLVRPGGSLRLSCAASGFTFSSYAMSWVRQAPGKGLEWVSAISGSGGSTYYADSVKGRFTISRDNTKNSLYLQMTSLRADDTAFYYCVKDFGPGYGTGWFDYWGPGTLVTVSS
VL: QSVLTQPPSVSEAPRQRVTITCSGSSSNIGNNAVNWYQQLPGKAPKLLIYAAGRGVEINVKCSGSPQCLKPCKDAGMRFGKCMNRKCHCTPKANSGVSDRFSAAKSGTSASLAINGLRSEDEADYYCAAWDDSLNGYVFGTGTKLTVLGQP
**Q.** How did the IC50 (huKv1.3) turn out when B1 was run?
**A.** > 10000 nM

**Q.** And the Fold difference (human Kv1.3 (huKv1.3); Kv1.1 IC50 over Kv1.3 IC50, Table E20)?
**A.** 3

**Q.** What about the IC50 (human Kv1.3 (huKv1.3); four-point curves of FIG. 33, Table E20, read-out: Kv1.3 IC50) of the same molecule?
**A.** 1540 nM

**Q.** And the IC50 (human Kv1.3 (huKv1.3); huKv1.3, four-point curves of FIG. 32, Table E19, read-out: IC50)?
**A.** 430 nM

**Q.** And the IC50 (human Kv1.1 (huKv1.1))?
**A.** 4800 nM
